Consider 5 molecules from patent publication US20030235863A1 (published 2003).

B3: formyl peptide receptor (FPR), wild type, solubilized in dodecyl maltoside (receptor, human, UniProt P21462 1-350, looked up)
chain: METNSSLPTNISGGTPAVSAGYLFLDIITYLVFAVTFVLGVLGNGLVIWVAGFRMTHTVTTISYLNLAVADFCFTSTLPFFMVRKAMGGHWPFGWFLCKFVFTIVDINLFGSVFLIALIALDRCVCVLHPVWTQNHRTVSLAKKVIIGPWVMALLLTLPVIIRVTTVPGKTGTVACTFNFSPWTNDPKERINVAVAMLTVRGIIRFIIGFSAPMSIVAVSYGLIATKIHKQGLIKSSRPLRVLSFVAAAFFLCWSPYQVVALIATVRIRELLQGMYKEIGIAVDVTSALAFFNSCLNPMLYVFMGQDFRERLIHALPASLERALTEDSTQTSDTATNSTLPSAEVELQAK
notes: Crude detergent extract of membranes, not purified; the extract holds endogenous G protein subunits; also called wild type receptor; soluble FPR
B4: FPR-GFP fusion protein (receptor)
chain: METNSSLPTNISGGTPAVSAGYLFLDIITYLVFAVTFVLGVLGNGLVIWVAGFRMTHTVTTISYLNLAVADFCFTSTLPFFMVRKAMGGHWPFGWFLCKFVFTIVDINLFGSVFLIALIALDRCVCVLHPVWTQNHRTVSLAKKVIIGPWVMALLLTLPVIIRVTTVPGKTGTVACTFNFSPWTNDPKERINVAVAMLTVRGIIRFIIGFSAPMSIVAVSYGLIATKIHKQGLIKSSRPLRVLSFVAAAFFLCWSPYQVVALIATVRIRELLQGMYKEIGIAVDVTSALAFFNSCLNPMLYVFMGQDFRERLIHALPASLERALTEDSTQTSDTATNSTLPSAEVELQAKAAA
notes: Solubilized in dodecyl maltoside from membranes of transfected cells; also called R^F; fluorescent formyl peptide receptor; not shown: Clontech's EGFP (enhanced green fluorescent protein), from its first amino acid

Experiment [1] deals with β1H6γ2 dimer on DCNi beads. Kind of experiment: flow cytometry, βγ-coated DCNi beads, 1 µM GTP (bar 6) against GTPγS (bar 2). On the technique in general: A flow cytometer gives signals particle by particle.
The target in experiment [2] is T1, N-terminal hexahistidine-tagged FPR (human, UniProt P21462 1-350).
T1 construct: Construct limits and junction are not described; also called N-H6:FPR
T1 sequence: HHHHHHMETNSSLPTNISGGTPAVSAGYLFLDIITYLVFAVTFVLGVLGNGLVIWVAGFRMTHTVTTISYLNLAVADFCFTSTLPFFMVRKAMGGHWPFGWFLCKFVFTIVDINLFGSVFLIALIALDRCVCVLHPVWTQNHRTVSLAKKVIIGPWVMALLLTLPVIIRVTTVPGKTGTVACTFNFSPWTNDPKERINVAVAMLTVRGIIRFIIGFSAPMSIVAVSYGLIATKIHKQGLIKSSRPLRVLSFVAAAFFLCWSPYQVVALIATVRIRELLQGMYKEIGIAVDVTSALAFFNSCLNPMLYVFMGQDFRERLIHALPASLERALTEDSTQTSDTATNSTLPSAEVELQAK
Kind of experiment: receptor on DCNi beads, flow cytometry.

Experiment [3] concerns the target T2, C-terminal hexahistidine-tagged FPR (human, UniProt P21462 1-350).
T2 construct: Construct limits and junction are not described; also called FPR:C-H6; C-H6:FPR
T2 sequence: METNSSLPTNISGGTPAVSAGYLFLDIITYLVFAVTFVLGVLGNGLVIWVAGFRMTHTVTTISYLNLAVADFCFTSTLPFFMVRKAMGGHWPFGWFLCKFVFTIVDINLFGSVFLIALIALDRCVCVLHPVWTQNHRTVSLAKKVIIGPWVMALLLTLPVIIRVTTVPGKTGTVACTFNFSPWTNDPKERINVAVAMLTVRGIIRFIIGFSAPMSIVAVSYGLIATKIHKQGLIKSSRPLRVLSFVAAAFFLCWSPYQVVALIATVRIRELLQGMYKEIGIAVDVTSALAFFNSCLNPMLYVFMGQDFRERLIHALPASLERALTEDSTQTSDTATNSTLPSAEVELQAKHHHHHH
Kind of experiment: receptor on DCNi beads, flow cytometry.

Experiment [4] has as its target B3. As to the kind of experiment: soluble receptor in detergent, spectrofluorimetry. The method, then:
(§1) Spectrofluorimetric Analysis of Soluble Complexes. Fluorescence was measured with an SLM 8000 spectrofluorimeter (SLM Instruments, Inc.) using the photon counting mode. The sample holder was fitted with a cylindrical cuvette adapter, which allowed the use of 200 μl samples in 7mm ×45 mm cylindrical cuvettes (Sienco; Wheat Ridge, Colo.), stirred with 2×5 mm stir bars (Bel-Art). Excitation was at 490 nm, and stray light was reduced with a 490+/−10 nm filter (Corion; now part of Spectra-Physics, Franklin, Mass.). Emission was monitored using a 520+/−10 nm filter (Corion) and a 500 nm long-pass filter (Kopp; Pittsburg, Pa.). Additions to samples during kinetic measurements were made through an injection port on the top of the sample holder with 10 μl glass syringes (Hamilton; Reno, Nev.). […] For accurate analysis, and for kinetic dissociation analysis, the percent of the control curve corresponding to the percent free ligand was subtracted from the receptor-containing curve.

Experiment [5] concerns the target T1, N-terminal hexahistidine-tagged FPR. Kind of experiment: soluble receptor in detergent, spectrofluorimetry. The method, then: as §1
The target of experiment [6] is T2, C-terminal hexahistidine-tagged FPR. As to the kind of experiment: soluble receptor in detergent, spectrofluorimetry. The method, then: as §1
The target of experiment [7] is T1, N-terminal hexahistidine-tagged FPR. Kind of experiment: soluble receptor in detergent, dissociation of L^F.
Experiment [8] concerns the target T2, C-terminal hexahistidine-tagged FPR. As to the kind of experiment: soluble receptor in detergent, dissociation of L^F.
Experiment [9] addresses B3. Kind of experiment: soluble receptor in detergent, spectrofluorimetry, dissociation of L^F. The method, then: as §1
In experiment [10] the target is T2, C-terminal hexahistidine-tagged FPR. Kind of experiment: receptor on DCNi beads, flow cytometry with rapid mixer, anti-FITC antibody added.
The target in experiment [11] is B3. Kind of experiment: spectrofluorimetry, soluble FPR in dodecyl maltoside, free ligand quenched by anti-FITC antibody. An excerpt: For accurate analysis, and for kinetic dissociation analysis, the percent of the control curve corresponding to the percent free ligand was subtracted from the receptor-containing curve.
The free ligand and bound ligand were discriminated using an antibody to fluorescein that rapidly quenched only the free ligand.

Experiment [12] concerns the target B4. As to the kind of experiment: flow cytometry, LRG assembly on DCNi G beads with 30 nM FPR-GFP. The method, then:
Standard LRG Assembly Assay. […] Each mixture was mixed by pipetting to ensure a uniform starting suspension of the beads in 96 V-well plates (Costar), and then mixed at low speed on a vortex mixer at 7° for two hours. The 10 μl assays were individually brought to 200 μl with 0.1% dodecyl maltoside in buffer A in 12×75 mm tubes for flow cytometric measurement of fluorescence of the beads. LRG assembly was defined as the difference between fluorescence without GTPγS and that with GTPγS. All determinations were done in duplicate.

Experiment [13] has as its target B3. Kind of experiment: spectrofluorimetric competition with L^F for soluble FPR; IC50 converted to Kd. The method, then:
as §1
(§2) Comparison of LR and LRG Affinities for a Family of Non-fluorescent Ligands.

Experiment [14] has as its target B4. Kind of experiment: Kd from competition on soluble FPR divided by EC50 of LRG assembly with FPR-GFP.
Description: as §2

Experiment [15] deals with G protein heterotrimer αi3β1H6γ2 on DCNi beads. Kind of experiment: flow cytometry, L^FRG assembly on DCNi G beads.
A further experiment has as its target T3, Gαi3β4γ2H6-FLAG.
T3 construct: Held on streptavidin-coated polystyrene beads through a biotinylated anti-FLAG antibody; also called αi3β4γ2-FLAG-H6
Kind of experiment: flow cytometry, LRG assembly on anti-FLAG beads.

Experiment [16] concerns the target G protein heterotrimer αi3β1H6γ2 on DCNi beads. As to the kind of experiment: flow cytometry, standard LRG assembly on nickel beads.
Experiment [17] has the same target. Kind of experiment: flow cytometry, standard assembly (bar 3) against GTPγS (bar 4).

No end group written: not given here. *: point of attachment. For = O=C*

G protein heterotrimer αi3β1H6γ2 on DCNi beads, sequence (chain, as listed by the source, chain 1 of 3): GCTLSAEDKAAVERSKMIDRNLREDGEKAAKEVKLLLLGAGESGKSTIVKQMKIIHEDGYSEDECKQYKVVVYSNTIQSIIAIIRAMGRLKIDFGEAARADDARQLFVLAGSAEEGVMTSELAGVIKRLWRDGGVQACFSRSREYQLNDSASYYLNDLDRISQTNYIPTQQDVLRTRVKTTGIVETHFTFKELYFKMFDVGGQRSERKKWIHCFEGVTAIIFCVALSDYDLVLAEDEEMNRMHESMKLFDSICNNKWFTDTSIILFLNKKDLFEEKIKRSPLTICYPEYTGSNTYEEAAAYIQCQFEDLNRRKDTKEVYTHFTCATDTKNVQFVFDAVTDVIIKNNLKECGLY
G protein heterotrimer αi3β1H6γ2 on DCNi beads, sequence (chain, as listed by the source, chain 2 of 3): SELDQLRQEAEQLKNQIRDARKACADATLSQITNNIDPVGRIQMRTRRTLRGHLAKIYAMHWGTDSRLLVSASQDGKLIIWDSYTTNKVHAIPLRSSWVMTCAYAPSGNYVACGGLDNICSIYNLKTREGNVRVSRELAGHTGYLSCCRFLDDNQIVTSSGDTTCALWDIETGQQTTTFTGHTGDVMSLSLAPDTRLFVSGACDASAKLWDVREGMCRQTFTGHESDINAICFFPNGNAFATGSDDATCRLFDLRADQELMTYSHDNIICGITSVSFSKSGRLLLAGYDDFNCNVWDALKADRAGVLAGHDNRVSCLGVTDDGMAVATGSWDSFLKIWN
G protein heterotrimer αi3β1H6γ2 on DCNi beads, sequence (chain, as listed by the source, chain 3 of 3): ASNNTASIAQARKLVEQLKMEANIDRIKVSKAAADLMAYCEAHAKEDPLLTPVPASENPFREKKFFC
β1H6γ2 dimer on DCNi beads, sequence (chain, as listed by the source, chain 1 of 2): as the sequence (chain, as listed by the source, chain 2 of 3) above
β1H6γ2 dimer on DCNi beads, sequence (chain, as listed by the source, chain 2 of 2): as the sequence (chain, as listed by the source, chain 3 of 3) above
T3 sequence (P08753 2-354, chain 1 of 3): as the sequence (chain, as listed by the source, chain 1 of 3) above
T3 sequence (P29387 2-340, chain 2 of 3, further chain): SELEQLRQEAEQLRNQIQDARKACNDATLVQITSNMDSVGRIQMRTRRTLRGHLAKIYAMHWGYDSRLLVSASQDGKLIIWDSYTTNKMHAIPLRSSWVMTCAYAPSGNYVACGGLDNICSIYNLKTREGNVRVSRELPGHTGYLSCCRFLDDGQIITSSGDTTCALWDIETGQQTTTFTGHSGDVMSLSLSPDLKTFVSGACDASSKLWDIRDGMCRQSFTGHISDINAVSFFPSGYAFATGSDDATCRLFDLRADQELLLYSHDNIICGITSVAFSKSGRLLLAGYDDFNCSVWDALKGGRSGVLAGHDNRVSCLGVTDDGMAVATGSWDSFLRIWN
T3 sequence (P63212 2-68, chain 3 of 3, further chain): as the sequence (chain, as listed by the source, chain 3 of 3) above

B1: FPR-Giα2 fusion protein (receptor, human;rat)
chain: METNSSLPTNISGGTPAVSAGYLFLDIITYLVFAVTFVLGVLGNGLVIWVAGFRMTHTVTTISYLNLAVADFCFTSTLPFFMVRKAMGGHWPFGWFLCKFVFTIVDINLFGSVFLIALIALDRCVCVLHPVWTQNHRTVSLAKKVIIGPWVMALLLTLPVIIRVTTVPGKTGTVACTFNFSPWTNDPKERINVAVAMLTVRGIIRFIIGFSAPMSIVAVSYGLIATKIHKQGLIKSSRPLRVLSFVAAAFFLCWSPYQVVALIATVRIRELLQGMYKEIGIAVDVTSALAFFNSCLNPMLYVFMGQDFRERLIHALPASLERALTEDSTQTSDTATNSTLPSAEVELQAKAAAMGCTVSAEDKAAAERSKMIDKNLREDGEKAAREVKLLLLGAGESGKSTIVKQMKIIHEDGYSEEECRQYRAVVYSNTIQSIMAIVKAMGNLQIDFADPQRADDARQLFALSCAAEEQGMLPEDLSGVIRRLWADHGVQACFGRSREYQLNDSAAYYLNDLERIAQSDYIPTQQDVLRTRVKTTGIVETHFTFKDLHFKMFDVGGQRSERKKWIHCFEGVTAIIFCVALSAYDLVLAEDEEMNRMHESMKLFDSICNNKWFTDTSIILFLNKKDLFEEKITQSPLTICFPEYTGANKYDEAASYIQSKFEDLNKRKDTKEIYTHFTCATDTKNVQFVFDAVTDVIIKNNLKDCGLF
notes: Solubilized in dodecyl maltoside; also called FPR-αi2; FPR-Gαi2
As for B1, the “total fluorescence to background ratio” value in [1] was found to be 2.7 ratio.

B2: formyl-MLFK-FITC (peptide)
peptide: For-MLFK
modifications: also: FITC conjugated, site not given here
notes: everywhere else it is fMLFK-FITC; also called fMLFK-FITC; fluorescent ligand
Turning to B2, the Kd (commonly a measure of binding affinity in units of concentration) in [2] stood at 8 nM; in [3], 4 nM; in experiment [4], 5 nM; in experiment [5] it was 7 nM; in experiment [6], 10 nM; in experiment [11] it was 4.8 nM. The “t1/2 (dissociation halftime)” value in experiment [7] was 15 s; in experiment [8] it was 14 s; in experiment [9] it was 14 s; in experiment [10], 14 s.

For the molecule For-MLFF [fMLFF], a half-maximal response with FPR-GFP fusion protein [12] (EC50) required 27 nM. Moreover, the Kd in experiment [13] came to 75 nM. The “ratio of Kd (for LR) to EC50 (for LRG formation)” value in the experiment with FPR-GFP fusion protein [14] came out at 2.8 ratio.

In the case of B3, in [15], the signal to background was at most 4 ratio. Besides, the “ratio of total signal to nonspecific signal” value (in the experiment with Gαi3β4γ2H6-FLAG; in experiment [16]) was 3 ratio each time.

In the case of B4, the “total binding to background ratio” value in [17] stood at 4.9 ratio.
